According to article PMC6051341:

Experiments:
[1] = molecular target: ΔM-N L-selectin–GFP (human) (UniProt P14151); test: FRET or BRET; FLIM measurement of FRET; THP-1 cells perfused over TNF-activated HUVECs, fixed in 4% PFA at 25 min (late TEM); optical section above the endothelium (top, non-transmigrated uropods)
[2] = molecular target: ΔM-N L-selectin–GFP (human) (UniProt P14151); test: FRET or BRET; FLIM measurement of FRET; THP-1 cells perfused over TNF-activated HUVECs, fixed in 4% PFA at 25 min (late TEM); optical section below the endothelium (base, transmigrated pseudopods)
[3] = molecular target: ΔM-N L-selectin–GFP (human) (UniProt P14151); test: FRET or BRET; FLIM measurement of FRET; THP-1 cells perfused over TNF-activated HUVECs, fixed in 4% PFA at 6 min (early TEM); optical section above the endothelium (top, non-transmigrated uropods)
[4] = molecular target: ΔM-N L-selectin–GFP (human) (UniProt P14151); test: FRET or BRET; FLIM measurement of FRET; THP-1 cells perfused over TNF-activated HUVECs, fixed in 4% PFA at 6 min (early TEM); optical section below the endothelium (base, transmigrated pseudopods)
[5] = molecular target: ΔM-N L-selectin–GFP (human) (UniProt P14151); test: FRET or BRET; FLIM measurement of FRET between GFP (donor, on L-selectin) and RFP (on the ERM protein); unchallenged THP-1 cells seeded onto poly-L-lysine-coated coverslips for 10 min at 37°C, fixed

Sequence of UniProt P14151 (P14151 39-372, stated change not applied): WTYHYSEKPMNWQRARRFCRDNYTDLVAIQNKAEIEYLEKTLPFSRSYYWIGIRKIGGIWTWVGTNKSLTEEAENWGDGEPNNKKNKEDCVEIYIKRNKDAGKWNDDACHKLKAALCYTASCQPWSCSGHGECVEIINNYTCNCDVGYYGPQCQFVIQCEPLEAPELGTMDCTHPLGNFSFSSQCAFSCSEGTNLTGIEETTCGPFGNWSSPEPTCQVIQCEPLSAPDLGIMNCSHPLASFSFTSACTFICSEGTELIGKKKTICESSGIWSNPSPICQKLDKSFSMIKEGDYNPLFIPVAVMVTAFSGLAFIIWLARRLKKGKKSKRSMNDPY

Substance	FRET efficiency (uropods, 25 min) [1] [%]	FRET efficiency (pseudopods, 25 min) [2] [%]	FRET efficiency (uropods, 6 min) [3] [%]	FRET efficiency (pseudopods, 6 min) [4] [%]	fold FRET efficiency against moesin with the same L-selectin (unchallenged cells) [5] [fold]
ezrin–RFP (from UniProt P15311 1-586) (natural protein)	7	6.5	6.5	7.1	3.2
moesin–RFP (from UniProt P26041 1-577) (natural protein)	2	4.2	2.7	2.4	
